Tested on: MBP-SpC33Leu fusion protein

enterokinase
cleavage of the fusion protein, MALDI-MS: No detectable amounts of MBP-linker-SP-C33(Leu) were observed, suggesting that the applied proteolytic reaction conditions result in a quantitative process

Reference: patent US20130303726
